Laboratory results published in patent publication US20080287363A1 (LABORATOIRES SERONO, published 2008).

B1: CCL13/MCP-4 (ligand)
chain: not shown
B2: XCL1/lymphotactin (ligand)
chain: VGSEVSDKRTCVSLTTQRLPVSRIKTYTITEGSLRAVIFITKRGLKVCADPQATWVRDVVRSMDRKSNTRNNMIQTKPTGTQQSTNTAVTLTG

Target: recombinant Δ6 evasin-4 (truncated, N-terminally 6His tagged evasin-4, amino acids 24-127), purified (Rhipicephalus sanguineus)
Experiment: SPR (Biacore 3000), Δ6 evasin-4 immobilized on CM4 chip, chemokine injected

Binder	binding result
B1	no binding (tested: 0.1 µg/ml)
B2	no binding (tested: 0.1 µg/ml)
